Reference: publication PMC10480196, “Glycerol biosynthetic pathway plays an essential role in proliferation and antioxidative defense in the human enteric protozoan parasite Entamoeba histolytica” (Scientific Reports, 2023)

Assays:
Type in all cases: biochemical, Entamoeba histolytica
purified protein [1] = substrate: Nc1ncnc2c1ncn2[C@@H]1O[C@H](COP(=O)(O)OP(=O)(O)O)[C@@H](O)[C@H]1O; assay: purified protein; conditions: reverse reaction, 40 mM G3P, 5 mM MgSO4, 1 mM EDTA, 50 mM Tris HCl pH 7.5
purified protein [2] = substrate: O=P(O)(O)OC[C@H](O)CO; assay: purified protein; conditions: reverse reaction, 1 mM ADP, 5 mM MgSO4, 1 mM EDTA, 50 mM Tris HCl pH 7.5
[3] = substrate: Nc1ncnc2c1ncn2[C@@H]1O[C@H](COP(=O)(O)OP(=O)(O)OP(=O)(O)O)[C@@H](O)[C@H]1O; assay: coupled fluorescence assay (ADP hexokinase, G6P dehydrogenase, diaphorase; resazurin reduction); conditions: forward reaction, 2 mM glycerol, 5 mM MgCl2, 50 mM Tris HCl pH 7.5, 37 °C, 10 mM N-ethylmaleimide
From the text: (§1) coupled fluorescence assay (ADP hexokinase, G6P dehydrogenase, diaphorase; resazurin reduction) on EhGK (rEhGK, recombinant E. histolytica glycerol kinase)

[4] = substrate: OCC(O)CO; assay: as above; conditions: forward reaction, 2 mM ATP, 5 mM MgCl2, 50 mM Tris HCl pH 7.5, 37 °C, 10 mM N-ethylmaleimide
From the text: as §1

B1: EhGK (rEhGK, recombinant E. histolytica glycerol kinase) (Entamoeba histolytica HM-1:IMSS) (protein)
chain: MKYILAIDQGTTSTRVILFDEKCQSIHTEQEEFDSIFPHPGWVEQDPEVIYTSVVNLMKKCLVNTGINKEDIAAIGITNQRETTVMWDKRTGKPIYNAIVWQSKQSGNETSYLMEKGYEEIFQSKTGLVLNPYFSASKIMWIFNNVEGAKALAEEGVLLFGTIDTWIIYNLTGGQSHSTDISNAARTLLFNIYEKKWDDELLAKTNIPKSILPIVKQSSDDFGIVSTIQEFNGIHITGVAGDQQASLFGHGSPIGGCKSTYGTGCFVVKNIGDTIKEIPKGLLATVGWEINGKITYALEGTVMTAGAALKWIRDIGILKDYNEISKIVTSKNGGVYFVPAFQGLGTPYWDDDVRGIIVGLTSGTGKGELVRATLESIALQCAQVIEIMGKINEIKVDGGVSRSDCMLQFQADICNCTVIRLKEKEITAMGAAMLAGLYVHLFKEDELDSMRVIEHVFKPQMSEEERKQIFSVWNKAVESARSFVH
Q: Which Km (purified protein [1]) does the source give for B1 here?
A: 140 ± 40 µM

Q: What about the Vmax (purified protein [1]) of the same protein?
A: 1.2 µmol/min/mg

Q: And the Km (purified protein [2])?
A: 8710 ± 2460 µM

Q: What about the Vmax (purified protein [2]) of the same protein?
A: 1.28 µmol/min/mg

Q: And the Km [3]?
A: 230 ± 30 µM

Q: What about the Vmax [3] of the same protein?
A: 1.3 µmol/min/mg

Q: What about the Km [4] of the same protein?
A: 160 ± 30 µM

Q: And the Vmax [4]?
A: 1.48 µmol/min/mg
